The results in this text go back to US9127075B2, “Analgesic active peptide VGG, preparation and use thereof” (priority 2010, dated 2015).

The test system of assay [1] is mouse twisting model induced by acetic acid. It is filed as in vivo. On the procedure:
1. In Vivo Analgesic Activity in Mouse Twisting Model Induced by Acetic Acid.
In mouse twisting model: The glacial acetic acid as the chemical irritant is injected into the mouse stomach, which causes a deep and large area and lasting pain stimulus for animal which has a “twist body” reaction, such as abdominal cove, torso and legs spread out, hip high up.
Equal numbers of male and female mice, whose weight were about […], were divided into groups by random. Each group consisted of eight mice. 0.2 ml/20 g of 0.6% (v/v) of acetic acid, which caused visceral pain, was intraperitoneally injected after the test sample was injected into the stomach of mouse for 20 minutes. The writhing times of the mouse were recorded for 10 min after the acetic acid was injected for 5 min. […] The inhibition of writhing response inhibition for each test group was calculated by the following formula: […]

The subject of assay [2] is mouse hot plate analgesic method. Nature of the assay: In vivo assay of analgesic activity, hot plate method of mice. Conditions: 0.1 mg/kg i.v. via tail, hot plate 55±0.5° C.; for B, average response time after medicine taken: before 21 ± 4.2 s. As to the method:
2. In Vivo Assay of Analgesic Activity—Hot Plate Method of Mice
This example is used to verify the in vivo biological activity for the analgesic activity of analgesic active peptide VGG with […].
The mouse hot plate analgesic method: the female mice with weight from 18 g to 22 g were put a hot plate at temperature of 55±0.5° C. which was maintained by a water bath. The licking times were recorded plate as the pain threshold of mouse after it was put onto the hot plate. The pain threshold between 10-30 seconds was considered to be qualified for experiments. The qualified mice were divided into groups by random. The normal pain reaction time of mouse was determined for two times. The mean of the pain threshold (B) was calculated before medicine was taken. The analgesic active peptide VGG (dosage of 0.1 mg/kg (test sample/mouse weight) was intravenously injected via tail. The normal saline was used as control group. The pain reaction time was recorded as one at 15, 30, 45, 60 […] after the test sample was taken. The mouse was immediately taken out if it had no pain response on the hot plate in 60 seconds. The 60 seconds as a calculation unit, the pain threshold increasing percentage was calculated by the following formula: A=(B−C)/C×100% • A—Pain threshold increasing percentage • B—Average response time after medicine taken • C—Average response time before medicine taken

Read-outs that look alike come from different tables or passages of the source.

B1: analgesic active peptide VGG (protein, listed as Mesobuthus martensi)
chain: VKDGYIADDRNCPYFCGRNAYCDGECKKNRAESGYCQWASKYGNACWCYKLPDDARIMKPGRCNGG
Take B1: the “inhibition of the animal writhing” value in assay [1] (purest analgesic active peptide VGG, dosage 0.1 mg/kg) was at least 60%; in assay [1] (various purity, isolated from scorpion venom or scorpion tails or scorpion body, dosage 0.1 mg/kg-1.0 mg/kg) it was at least 50%. Besides, the “A, pain threshold increasing percentage” value is given as 128% in assay [2] (10 min); 138% in assay [2] (15 min); 114% in assay [2] (30 min); 100% in assay [2] (45 min); 90% in assay [2] (60 min). Besides, the “B, average response time after medicine taken” value in assay [2] (10 min) worked out at 48 ± 3.2 s; in assay [2] (15 min), 50 ± 5.1 s; in assay [2] (30 min) it was 45 ± 3.7 s; in assay [2] (45 min), 42 ± 6.9 s; in assay [2] (60 min) it was 40 ± 3.5 s.
